Marks after values point to notes of the source that are not given here. Where no end group is shown, it is not given here.
What was measured:
HHCCs = assay: reconstituted basement membrane invasion assay with antagonistic peptides; format: cell-based, human; conditions: for inhibitory rate (%): invasion of HHCCs through reconstituted basement membrane, 20 hours, vs control; for inhibition of hepatocellular carcinoma cells invasion and metastasis (in words): reconstituted basement membrane invasion
Procedure: Matrigel (main component was type IV collagen, BD Company) was added onto the inner surface of Boyden Chambers (Millipore) to form the reconstituted basement membrane. Cells (HHCC cells and human fibroblasts) and antisense RNA were added and the chambers were put in the 24-well plates and co-cultured overnight. Cells infiltrated through the reconstituted basement membrane and appeared on the outer surfaces of the membrane were stained and counted under high-power microscope.
1. in vitro studies: reconstituted basement membrane invasion was employed to test the effects of the antagonistic peptides for HAb18G/CD147 on the invasive ability of HHCCs. Antagonistic peptides were co-cultured with HHCCs and fibroblasts on the reconstituted basement membrane for 20 hours. Cells infiltrated through the reconstituted basement membrane were counted under high-power microscope and the inhibitory rate of the antagonistic peptides was calculated.

HHCC cells = assay: tumorigenesis of HHCC cells inoculated in mice; format: in vivo; conditions: i.v. 2.5 mg/kg; for inhibitory effect on tumorigenesis of hepatocellular carcinoma cells: 200 μl HHCC cells (1×10^6/ml)
Procedure: 2. in vivo studies: The mice were inoculated with 200 μl HHCC cells (1×10^6/ml) and were then treated with HAb18G/CD147 antagonistic peptides (i.v.) at the dose of 2.5 mg/kg weight. […] Moreover, the average survival time of mice in therapeutic group was two times as long as that of the control group. A high metastatic human hepatocellular carcinoma cell line MHCC97-H was transplanted into the liver of nude mice to investigate the anti-metastasis effects of APs. […] The inhibitory effects of HAb18G/CD147 antagonistic peptides on angiogenesis in chick embryo chorioallantoic membrane (CAM) as well as on angiogenesis induced by Matrigel plug were detected.

[1] = molecular target: T1, HAb18G/CD147 on HHCC hepatocellular carcinoma cells (human, UniProt P35613 140-385, glycosylated (mode not specified)); assay: cell-based or functional assay
T1 sequence: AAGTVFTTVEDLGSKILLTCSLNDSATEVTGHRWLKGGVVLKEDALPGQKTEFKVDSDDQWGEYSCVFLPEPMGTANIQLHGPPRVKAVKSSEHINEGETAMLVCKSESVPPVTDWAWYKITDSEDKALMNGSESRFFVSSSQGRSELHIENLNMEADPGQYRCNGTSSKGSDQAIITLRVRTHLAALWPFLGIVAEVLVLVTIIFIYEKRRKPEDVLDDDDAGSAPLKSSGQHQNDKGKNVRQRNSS

human fibroblasts = assay: gelatin zymography of human fibroblasts stimulated by purified HAb18G/CD147; format: cell-based; conditions: MMP-9, MMP-2 and MT1-MMP
Procedure: The experiments were carried out as follows:
Purified HAb18G/CD147 was added to the cultured human fibroblasts and the supernatant of the culture was collected and then subjected to SDS-PAG electrophoresis in a separation gel containing 1 mg/ml gelatin. Different from the conventional SDS-PAGE, no DTT was added to the sample and furthermore, the sample was not boiled. After electrophoresis, the gel was washed twice (45 min/each time) at room temperature and washed twice (20 min/each time) with 0.1 mol/L NaCl, and then incubated for 24 hours in an incubation solution at 37° C. The gel was stained with 0.5% (w/v) Coomassie Blue and then destained. MMPs were detected as clear bands against a blue background.

**Q.** What does the source list for “YKLPGHHHHYRP [AP-9, antagonistic 12-mer peptide for HAb18G/CD147]”?
**A.** inhibitory rate (%) (HHCCs): 81.19^a %; inhibition of hepatocellular carcinoma cells invasion and metastasis (in words) (HHCCs): significantly inhibited

**Q.** Which results are given for “MTHDPVISLPTT [AP-1, antagonistic 12-mer peptide for HAb18G/CD147]”?
**A.** inhibitory effect on tumorigenesis of hepatocellular carcinoma cells (HHCC cells): significant inhibitory effects; inhibitory rate (%) (HHCCs): 78.2^a %; inhibition of hepatocellular carcinoma cells invasion and metastasis (in words) (HHCCs): significantly inhibited

**Q.** Which results are given for “ANIVPIHANHFQ [AP-7, antagonistic 12-mer peptide for HAb18G/CD147]”?
**A.** inhibitory rate (%) (HHCCs): 56.44^a %; inhibition of hepatocellular carcinoma cells invasion and metastasis (in words) (HHCCs): significantly inhibited

**Q.** With “YPFHHKHWHRPN [AP-6, antagonistic 12-mer peptide for HAb18G/CD147]” as the molecule, how does the “inhibitory effect on tumorigenesis of hepatocellular carcinoma cells” value (HHCC cells) read?
**A.** significant inhibitory effects

**Q.** What about the “tumor formation on the 11th day from inoculation” value (HHCC cells; HHCC cells, tumors formed in all control mice) of the same molecule?
**A.** no tumor formed

**Q.** And the “inhibitory rate (%)” value (HHCCs)?
**A.** 62.38^a %

**Q.** What about the “inhibition of hepatocellular carcinoma cells invasion and metastasis (in words)” value (“inhibition” for short) (HHCCs) of the same molecule?
**A.** significantly inhibited

**Q.** For “GHWHNHRHQAPL [AP-3, antagonistic 12-mer peptide for HAb18G/CD147]”, which “inhibition” value (HHCCs) is on record?
**A.** significantly inhibited

**Q.** For “MHKHPHGSQGPT [AP-8, antagonistic 12-mer peptide for HAb18G/CD147]”, which “inhibitory rate (%)” value (HHCCs) is on record?
**A.** 68.32^a %

**Q.** What about the “inhibition” value (HHCCs) of the same molecule?
**A.** significantly inhibited

B1: HAb18G/CD147 binding/antagonistic peptide (9) (peptide)
peptide: YKLPGHHHHYRP
**Q.** For B1, which infiltrative cells [1] is on record?
**A.** 3.8 cells

**Q.** What about the “inhibitory rate (%)” value [1] of the same molecule?
**A.** 81.2%

B2: HAb18G/CD147 binding/antagonistic peptide (6) (peptide)
peptide: YPFHHKHWHRPN
**Q.** Which results are given for B2?
**A.** infiltrative cells [1]: 7.6 cells; inhibitory rate (%) [1]: 62.4%

B3: HAb18G/CD147 binding/antagonistic peptide (5) (peptide)
peptide: IGWHYYLRTQHS
**Q.** With B3 as the molecule, how does the infiltrative cells [1] read?
**A.** 23.2 cells

**Q.** And the “inhibitory rate (%)” value [1]?
**A.** -14.8%

B4: HAb18G/CD147: hepatocellular carcinoma-associated antigen of 269 amino acids, purified from HHCC cells by HAb18 affinity chromatography (protein, listed as Homo sapiens)
chain: MAAALFVLLGFALLGTHGASGAAGTVFTTVEDLGSKILLTCSLNDSATEVTGHRWLKGGVVLKEDALPGQKTEFKVDSDDQWGEYSCVFLPEPMGTANIQLHGPPRVKAVKSSEHINEGETAMLVCKSESVPPVTDWAWYKITDSEDKALMNGSESRFFVSSSQGRSELHIENLNMEADPGQYRCNGTSSKGSDQAIITLRVRTHLAALWPFLGIVAEVLVLVTIIFIYEKRRKPEDVLDDDDAGSAPLKSSGQHQNDKGKNVRQRNSS
**Q.** Which “MMPs secreted by human fibroblasts after stimulation” value (human fibroblasts) does the source give for B4 here?
**A.** secreted three different MMPs

B5: HAb18G/CD147 binding/antagonistic peptide (2) (peptide)
peptide: LHRHSHGHSYKS
**Q.** Which infiltrative cells [1] does the source give for B5 here?
**A.** 28 cells

**Q.** What about the “inhibitory rate (%)” value [1] of the same molecule?
**A.** -38.6%

B6: HAb18G/CD147 binding/antagonistic peptide (3) (peptide)
peptide: GHWHNHRHQAPL
**Q.** For B6, which infiltrative cells [1] is on record?
**A.** 2 cells

**Q.** What about the “inhibitory rate (%)” value [1] of the same molecule?
**A.** 90.1%

B7: HAb18G/CD147 binding/antagonistic peptide (4) (peptide)
peptide: KYPHQHLHMHDS
**Q.** What does the source list for B7?
**A.** infiltrative cells [1]: 12.2 cells; inhibitory rate (%) [1]: 39.6%

B8: HAb18G/CD147 binding/antagonistic peptide (7) (peptide)
peptide: ANIVPIHANHFQ
**Q.** B8 was tested. Which infiltrative cells [1] did it give?
**A.** 8.8 cells

**Q.** And the “inhibitory rate (%)” value [1]?
**A.** 56.4%

B9: HAb18G/CD147 binding/antagonistic peptide (8) (peptide)
peptide: MHKHPHGSQGPT
**Q.** Which infiltrative cells [1] does the source give for B9 here?
**A.** 6.4 cells

**Q.** And the “inhibitory rate (%)” value [1]?
**A.** 68.3%

B10: HAb18G/CD147 binding/antagonistic peptide (1) (peptide)
peptide: MTHDPVISLPTT
**Q.** Which infiltrative cells [1] does the source give for B10 here?
**A.** 4.4 cells

**Q.** What about the “inhibitory rate (%)” value [1] of the same molecule?
**A.** 78.2%

Reference: patent US20050026841A1, “Hab18g/cd147 its antagonist and application” (priority 2001, published 2005)
